These results are taken from patent US20170368169A1 (MARENGO THERAPEUTICS, published 2017).

Assay [1] concerns the target T1, human PD1L1 (generated from SEQ ID NO: 178) (human).
T1 construct: Antigen construct made in house; also called hPD1L1; human PDL1
In words: ELISA on plate-bound antigen, molecule titrated 1 uM-1 pM. On the technique in general: ELISA stands for enzyme-linked immunosorbent assay.

In assay [2] the target is T2, human mesothelin (generated from SEQ ID NO: 181) (human).
T2 construct: Antigen construct made in house; BirA was co-transfected when biotinylation was required; also called hMeso 1-7; hMesothelin
T2 chain: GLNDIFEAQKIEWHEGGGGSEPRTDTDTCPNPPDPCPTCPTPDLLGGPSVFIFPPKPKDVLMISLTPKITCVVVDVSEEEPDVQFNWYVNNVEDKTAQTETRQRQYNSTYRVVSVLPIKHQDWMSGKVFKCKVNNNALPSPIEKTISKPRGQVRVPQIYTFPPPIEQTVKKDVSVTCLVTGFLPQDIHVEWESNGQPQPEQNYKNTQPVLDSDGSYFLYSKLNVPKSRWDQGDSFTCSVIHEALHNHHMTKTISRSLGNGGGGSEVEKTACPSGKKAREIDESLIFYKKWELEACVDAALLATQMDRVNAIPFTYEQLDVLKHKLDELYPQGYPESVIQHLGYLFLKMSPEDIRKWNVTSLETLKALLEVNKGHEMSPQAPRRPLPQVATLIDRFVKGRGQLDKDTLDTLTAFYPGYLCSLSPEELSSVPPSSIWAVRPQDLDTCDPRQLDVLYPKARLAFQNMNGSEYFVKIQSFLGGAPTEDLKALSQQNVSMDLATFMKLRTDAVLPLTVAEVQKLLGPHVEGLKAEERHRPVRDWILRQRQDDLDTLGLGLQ
Described as above.

B1: Multispecific molecule 5 (bispecific antibody, human IgG1, kappa, lambda)
heavy 1: not shown
light 1: not shown
heavy 2: EVQLLESGGGLVQPGGSLRLSCAASGFTFSSYIMMWVRQAPGKGLEWVSSIYPSGGITFYADTVKGRFTISRDNSKNTLYLQMNSLRAEDTAVYYCARIKLGTVTTVDYWGQGTLVTVSSASTKGPSVFPLAPSSKSTSGGTAALGCLVKDYFPEPVTVSWNSGALTSGVHTFPAVLQSSGLYSLSSVVTVPSSSLGTQTYICNVNHKPSNTKVDKRVEPKSCDKTHTCPPCPAPELLGGPSVFLFPPKPKDTLMISRTPEVTCVVVDVSHEDPEVKFNWYVDGVEVHNAKTKPREEQYNSTYRVVSVLTVLHQDWLNGKEYKCKVSNKALPAPIEKTISKAKGQPREPQVCTLPPSREEMTKNQVSLSCAVKGFYPSDIAVEWESNGQPENNYKTTPPVLDSDGSFFLVSKLTVDKSRWQQGNVFSCSVMHEALHNHYTQKSLSLSPGK
light 2: QSALTQPASVSGSPGQSITISCTGTSSDVGGYNYVSWYQQHPGKAPKLMIYDVSNRPSGVSNRFSGSKSGNTASLTISGLQAEDEADYYCSSYTSSSTRVFGTGTKVTVLGQPKANPTVTLFPPSSEELQANKATLVCLISDFYPGAVTVAWKADGSPVKAGVETTKPSKQSNNKYAASSYLSLTPEQWKSHRSYSCQVTHEGSTVEKTVAPTECS
notes: Mesothelin targeting arm and PDL1 targeting arm
For orientation: EC50 means the concentration giving half of the maximal effect. With B1, the EC50 in assay [1] worked out at 0.25 nM; in assay [2], 163 nM.
